According to patent US20260250402A1 (C O INMAGENE PTE, published 2026):
Read-outs that look alike come from different tables or passages of the source.

T1: Human his-tag IL-7Ra protein (human, UniProt P16871 21-239)
T1 construct: Construct not described; Position of the tag unknown; also called IL-7Ra (Biacore analyte); not shown: his tag
T1 sequence: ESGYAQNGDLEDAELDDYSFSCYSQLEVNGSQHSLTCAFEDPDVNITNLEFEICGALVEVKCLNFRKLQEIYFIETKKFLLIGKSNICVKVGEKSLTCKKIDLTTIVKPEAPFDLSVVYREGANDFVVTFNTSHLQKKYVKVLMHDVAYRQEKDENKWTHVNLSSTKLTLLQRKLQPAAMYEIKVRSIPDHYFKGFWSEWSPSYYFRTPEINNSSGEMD

T2: human IL-7Ra expressed on CHOK1-human IL-7Ra cells (human, UniProt P16871 21-459)
T2 construct: also called human IL-7Ra expressed on cell membrane; CD127
T2 sequence: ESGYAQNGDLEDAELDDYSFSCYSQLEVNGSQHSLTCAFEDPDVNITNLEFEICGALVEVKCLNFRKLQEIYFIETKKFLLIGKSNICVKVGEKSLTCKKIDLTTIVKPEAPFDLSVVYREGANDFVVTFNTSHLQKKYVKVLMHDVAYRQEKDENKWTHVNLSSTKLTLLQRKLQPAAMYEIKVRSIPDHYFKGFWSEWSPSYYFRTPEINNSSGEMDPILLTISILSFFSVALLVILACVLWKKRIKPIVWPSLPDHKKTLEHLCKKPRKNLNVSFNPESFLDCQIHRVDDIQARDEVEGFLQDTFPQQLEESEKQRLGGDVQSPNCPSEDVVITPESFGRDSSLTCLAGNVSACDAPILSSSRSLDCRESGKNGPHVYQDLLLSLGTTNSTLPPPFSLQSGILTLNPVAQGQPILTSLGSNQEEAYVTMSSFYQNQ

T3: cynomolgus IL-7Ra expressed on CHOK1-cyno IL-7Ra cells (cynomolgus, UniProt Q38IC7 21-459)
T3 sequence: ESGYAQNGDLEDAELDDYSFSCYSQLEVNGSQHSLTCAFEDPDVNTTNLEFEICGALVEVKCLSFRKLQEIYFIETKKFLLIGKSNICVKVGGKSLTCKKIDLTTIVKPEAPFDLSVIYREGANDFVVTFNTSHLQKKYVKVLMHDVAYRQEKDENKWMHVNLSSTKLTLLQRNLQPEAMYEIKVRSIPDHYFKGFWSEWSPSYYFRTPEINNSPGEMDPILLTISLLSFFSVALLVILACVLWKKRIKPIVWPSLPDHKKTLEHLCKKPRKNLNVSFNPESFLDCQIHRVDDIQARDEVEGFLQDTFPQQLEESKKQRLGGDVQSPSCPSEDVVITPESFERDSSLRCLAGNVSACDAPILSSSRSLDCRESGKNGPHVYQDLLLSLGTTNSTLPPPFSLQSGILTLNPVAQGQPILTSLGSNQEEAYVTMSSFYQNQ

T4: cynomolgus Fc-tag IL-7Ra protein (cynomolgus, UniProt Q38IC7 21-240)
T4 construct: also called cynomolgus IL-7Ra protein; not shown: Fc tag
T4 sequence: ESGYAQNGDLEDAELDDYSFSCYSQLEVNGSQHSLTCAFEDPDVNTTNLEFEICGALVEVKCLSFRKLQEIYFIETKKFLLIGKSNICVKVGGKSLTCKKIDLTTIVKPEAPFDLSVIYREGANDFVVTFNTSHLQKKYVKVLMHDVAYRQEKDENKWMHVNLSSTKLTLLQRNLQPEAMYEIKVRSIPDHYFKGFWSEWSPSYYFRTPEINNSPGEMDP

T5: human Fc-tag IL-7Ra protein (human, UniProt P16871 21-239)
T5 construct: also called human IL-7Ra protein; not shown: Fc tag fused to the N-terminus
T5 sequence: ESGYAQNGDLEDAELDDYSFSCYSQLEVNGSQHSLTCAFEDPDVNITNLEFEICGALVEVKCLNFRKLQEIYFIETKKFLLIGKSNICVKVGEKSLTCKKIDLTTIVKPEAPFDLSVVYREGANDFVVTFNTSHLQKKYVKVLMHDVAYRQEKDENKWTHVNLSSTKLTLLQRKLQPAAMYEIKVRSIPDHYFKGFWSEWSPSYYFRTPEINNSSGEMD


Assays:
[1] = biological target: cynomolgus IL-7Ra expressed on CHOK1-cyno IL-7Ra cells (cynomolgus) (UniProt Q38IC7); test: flow cytometry, CHOK1-cyno IL-7Ra cells; negative control
[2] = biological target: human IL-7Ra expressed on CHOK1-human IL-7Ra cells (human) (UniProt P16871); test: flow cytometry, CHOK1-human IL-7Ra cells; negative control
[3] = biological target: T1, Human his-tag IL-7Ra protein; test: SPR Biacore 8K, antibody Fc-captured, human his-tag IL-7Ra analyte, 1:1 model
[4] = biological target: T2, human IL-7Ra expressed on CHOK1-human …; test: flow cytometry on CHOK1-human IL-7Ra cells, MFI (upper left panel)
[5] = biological target: T3, cynomolgus IL-7Ra expressed on …; test: flow cytometry, CHOK1-cyno IL-7Ra cells
[6] = biological target: T2, human IL-7Ra expressed on CHOK1-human …; test: flow cytometry, CHOK1-human IL-7Ra cells
[7] = biological target: T2, human IL-7Ra expressed on CHOK1-human …; test: flow cytometry blocking assay: binding of hIL-7-his (0.1 ug/ml) to CHOK1-human IL-7Ra cells in the presence of the antibody, anti-His Alexa Fluor 488, MFI (left panel)
[8] = biological target: T4, cynomolgus Fc-tag IL-7Ra protein; test: ELISA, cynomolgus Fc-tag IL-7Ra protein, HRP-labelled secondary antibody, OD 450 (right panel)
[9] = biological target: T5, human Fc-tag IL-7Ra protein; test: ELISA, plate coated with human Fc-tag IL-7Ra protein, HRP-labelled secondary antibody, OD 450 (left panel)
[10] = biological target: T3, cynomolgus IL-7Ra expressed on …; test: flow cytometry on CHOK1-cyno IL-7Ra cells, MFI (upper right panel)
[11] = biological target: T3, cynomolgus IL-7Ra expressed on …; test: as above; remark: listed apart in the source
[12] = biological target: T2, human IL-7Ra expressed on CHOK1-human …; test: flow cytometry on CHOK1-human IL-7Ra cells, MFI (upper left panel); remark: listed apart in the source
[13] = biological target: T2, human IL-7Ra expressed on CHOK1-human …; test: flow cytometry blocking assay: binding of hIL-7-his (0.1 ug/ml) to CHOK1-human IL-7Ra cells in the presence of the antibody, anti-His Alexa Fluor 488, MFI (right panel)
[14] = biological target: T2, human IL-7Ra expressed on CHOK1-human …; test: flow cytometry blocking assay: binding of hIL-7-his to CHOK1-human IL-7Ra cells in the presence of the antibody, MFI (right panel)

Molecule | EC50 [1] [µg/mL] | Top (MFI) [1] [MFI] | EC50 [2] [µg/mL] | Top (MFI) [2] [MFI] | Kd [3] [nM] | koff [3] [s⁻¹] | kon [3] [M⁻¹ s⁻¹] | EC50 (read off the curve) [4] [µg/mL] | EC50 [5] [µg/mL] | Top (MFI) [5] [MFI] | EC50 [6] [µg/mL] | Top (MFI) [6] [MFI] | IC50 (read off the curve) [7] [µg/mL] | EC50 (read off the curve) [8] [µg/mL] | EC50 (read off the curve) [9] [µg/mL] | EC50 (read off the curve) [10] [µg/mL] | EC50 (read off the curve) [11] [µg/mL] | EC50 (read off the curve) [12] [µg/mL] | IC50 (read off the curve) [13] [µg/mL] | IC50 (read off the curve) [14] [µg/mL]
isotype hIgG4 antibody (negative control) | 32.2 | 93.7 | 6.8 | 73 |  |  |  |  |  |  |  |  |  |  |  |  |  |  |  | 
ADX-914 (Tab1) (antibody, human IgG1, kappa, V domains shown, also called benchmark antibody ADX-914) VH: EVQLVESGGGLVQPGRSLRLSCAASGFTFDDHAMHWVRQAPGKGLEWVSGISWNSRGIGYADSVKGRFTIFRDNAKNSLYLQMNSLRAEDTALYYCAKDEYSRGYYVLDVWGQGTTVTVSS VL: AIQLTQSPSSLSASVGDRVTITCRASQGISSALAWYQQKPGKAPKLLIYDASSLESGVPSRFSGSGSGTDFTLTISSLQPEDFATYYCQQFNSYPLWITFGQGTRLEIKR |  |  |  |  | 0.258 | 0.000297 | 1.15e+06 | ~0.1 | 0.289 | 20800 | 0.31 | 26000 | ~0.1 | ~0.03 | ~0.01 | ~0.2 |  |  |  | 
OSE127 (Tab2) (antibody, human IgG4 S228P, kappa, V domains shown, also called benchmark antibody OSE127) VH: QVQLVESGGGLVKPGGSLRLSCAVSGFTLSDYYMAWIRQAPGKGLEWVSTISASGLRTYYPDSVKGRFTISRDNAKNSLYLQMNSLRAEDTAVYYCARPLSAHYGFNYFDYWGQGTLVTVSS VL: DIQMTQSPSSLSASVGDRVTITCRTSEDIYQGLAWYQQKPGKAPKLLLYSANTLHIGVPSRFSGSGSGTDYTLTISSLQPEDFATYYCQQYYDYPLAFGGGTKVEIKR |  |  |  |  | 0.385 | 0.000252 | 656000 | ~0.2 | 0.51 | 19100 | 0.387 | 24300 |  | ~0.03 | ~0.02 | ~0.3 | ~0.1 | ~0.08 | ~0.07 | 
HuAb008 (antibody, V domains shown, Humanized version of cmAb011; also called humanized VL4 / humanized VH2) VH: QVQLVQSGAEVKKPGASVKVSCKASGYRFTDYELHWVRQAPGQGLEWMGGIDPKTGGTAYNQKFKGRVTMTSDRSTSTVYMELSSLRSEDTAVYYCARSGGRWYFDVWGQGTTVTVSS VL: DIVLTQSPDSLAVSLGERATINCRTSESVSIHLLHLMHWYQQKPGQPPKLLIYGASNLESGVPDRFSGSGSETDFTLTISSLQAEDVAVYYCQQSIKDPYTFGGGTKVEIK |  |  |  |  | 0.118 | 0.00031 | 2.64e+06 |  | 0.221 | 17600 | 0.171 | 20400 |  |  |  |  |  |  |  | 
HuAb004 (antibody, V domains shown, Humanized version of cmAb011; also called humanized VL4 / humanized VH1) VH: QVQLVQSGAEVKKPGASVKVSCKASGYRFTDYELHWVRQAPGQGLEWMGGIDPKTGGTAYNQKFKGRVTMTRDTSTSTVYMELSSLRSEDTAVYYCARSGGRWYFDVWGQGTTVTVSS VL: DIVLTQSPDSLAVSLGERATINCRTSESVSIHLLHLMHWYQQKPGQPPKLLIYGASNLESGVPDRFSGSGSETDFTLTISSLQAEDVAVYYCQQSIKDPYTFGGGTKVEIK |  |  |  |  | 0.181 | 0.00029 | 1.6e+06 |  | 0.206 | 16200 | 0.2 | 21500 |  |  |  |  |  |  |  | 
HuAb003 (antibody, V domains shown, Humanized version of cmAb011; also called humanized VL3 / humanized VH1) VH: QVQLVQSGAEVKKPGASVKVSCKASGYRFTDYELHWVRQAPGQGLEWMGGIDPKTGGTAYNQKFKGRVTMTRDTSTSTVYMELSSLRSEDTAVYYCARSGGRWYFDVWGQGTTVTVSS VL: DIVMTQSPDSLAVSLGERATINCRTSESVSIHLLHLMHWYQQKPGQPPKLLIYGASNLESGVPDRFSGSGSGTDFTLTISSLQAEDVAVYYCQQSIKDPYTFGGGTKVEIK |  |  |  |  | 0.212 | 0.000342 | 1.61e+06 |  | 0.239 | 16100 | 0.21 | 21700 |  |  |  |  |  |  |  | 
HuAb013 (antibody, V domains shown, Humanized version of cmAb011; also called humanized VL1 / humanized VH4) VH: QVQLVQSGAEVKKPGASVKVSCKASGYRFTDYELHWVRQAPGQGLEWMGGIDPKTGGTAYNQKFKGKVTLTSDRSTSTVYMELSSLRSEDTAVYYCARSGGRWYFDVWGQGTTVTVSS VL: DIVLTQSPASLAVSPGQRATITCRTSESVSIHLLHLMHWYQQKPGQPPKLLIYGASNLESGVPARFSGSGSGTDFTLTINPVEAEDTANYYCQQSIKDPYTFGGGTKVEIK |  |  |  |  | 0.18 | 0.000292 | 1.63e+06 |  | 0.0325 | 16300 | 0.0326 | 24400 |  |  |  |  |  |  |  | ~0.1
HuAb009 (antibody, V domains shown, Humanized version of cmAb011; also called humanized VL1 / humanized VH3) VH: QVQLVQSGAEVKKPGASVKVSCKASGYRFTDYELHWVKQAPGQGLEWIGGIDPKTGGTAYNQKFKGRVTMTSDRSTSTVYMELSSLRSEDTAVYYCARSGGRWYFDVWGQGTTVTVSS VL: DIVLTQSPASLAVSPGQRATITCRTSESVSIHLLHLMHWYQQKPGQPPKLLIYGASNLESGVPARFSGSGSGTDFTLTINPVEAEDTANYYCQQSIKDPYTFGGGTKVEIK |  |  |  |  | 0.188 | 0.000267 | 1.42e+06 |  | 0.0711 | 16600 | 0.0719 | 20900 |  |  |  |  |  |  |  | 
cmAb011 (chimeric Ab011) (antibody, V domains shown, also called chimeric antibody Ab011) VH: QVQLQQSGAELMRPGASVTLSCKTSGYRFTDYELHWVKQTPVRGLEWIGGIDPKTGGTAYNQKFKGKAILTSDRSSSTTYMELRSLASEDSAVYYCTRSGGRWYFDVWGTGTTVTVSS VL: DIVLTQSPASLAVSLGQRATISCRTSESVSIHLLHLMHWYQQKPGQPPKLLIYGASNLESGVPARFSGSGSETDFTLNIHPVEEEDAATYFCQQSIKDPYTFGGGTKLEIKR |  |  |  |  | 0.143 | 0.000234 | 1.64e+06 | ~0.2 | 0.134 | 18400 | 0.0842 | 22400 |  | ~0.04 | ~0.02 | ~0.3 |  |  |  | 
